Test results published in publication PMC9040798.
Residue numbers refer to the chain shown, from its start.

Key:
Experiment in all cases: EMSA
Settings in all cases: DIG gel shift kit (2nd generation, Roche), as in ref 14; buffer, salt, pH and temperature not stated
[1] = tested on: T1, GdhR P6S P6S (Neisseria gonorrhoeae MS11), ORF:8165ddaf
T1 sequence: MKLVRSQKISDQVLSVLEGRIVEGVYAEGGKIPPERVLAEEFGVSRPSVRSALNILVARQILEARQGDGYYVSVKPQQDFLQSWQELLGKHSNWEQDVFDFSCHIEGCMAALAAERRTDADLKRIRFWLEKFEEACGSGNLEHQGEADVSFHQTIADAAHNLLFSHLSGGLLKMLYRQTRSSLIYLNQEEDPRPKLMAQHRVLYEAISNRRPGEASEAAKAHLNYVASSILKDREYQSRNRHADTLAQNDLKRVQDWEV

[2] = tested on: T2, GdhR WT (Neisseria gonorrhoeae), ORF:8165ddaf
T2 sequence: T1 sequence with S6P

[3] = tested on: GdhR WT;GdhR P6S P6S (Neisseria gonorrhoeae;Neisseria gonorrhoeae MS11), ORF:8165ddaf+ORF:8165ddaf

Which binding [1] does the source give for “GTGGACGGGGACGGCGCGGTATTCGTGCCGCCGGAAGAATGCTGAAAATGCCGTCTGAAGCCTTTCGGGCGGCTTTTTCTACACGCCCCTTTCCCACACTCCCTCCGCCGCATCATCACCATCCTTAACCCGCATTAATAGCCATTATCGATAAAATGCTTGACCGATTACATAAGATTACGTAAAGTGTGCAAACGCATAATAATTGGTCTTACCAATTTATCTTTTAACCAAAATATCGGGTGTGCGGGATTTGAACGTCTTTCCAAACCTCGACGCGCCTTATGATGC (double strand) [lctP promoter -313 to -23]” here?
Its binding is “binds more weakly”.

What about the binding [2] of the same sequence?
Its binding is “binds”.

What about the binding [3] of the same sequence?
Its binding is “binds”.
